Measurements: patent US20210380699A1 (published 2021)
Residue numbers refer to the chain shown, from its start. Each block holds one binder with its values, some of them ahead of it.

Columns and labels:
[1] = molecular target: T1, Human PD-L1 His (human PD-L1 ECD with C-terminal His tag) (human, UniProt Q9NZQ7 19-238); test: ELISA, biotin-PD-L1 to plate-bound CD80, antibody titrated
T1 construct: Biotinylated in ELISA and AlphaScreen assays; also called hPD-L1-his; biotinylated PD-L1 his
Description: (§1) Excess protein was removed by washing with PBS-Tween (0.1% v/v) and the wells were blocked with 1% w/v bovine serum albumin (BSA, Sigma) in PBS for 1 hour at room temperature, after which plates were washed with PBS-Tween as above. 60 μL of a titration (three-fold serial dilution) of antibody was added to a 96-well, non-binding plate diluted in ELISA assay buffer (PBS +0.1% BSA). […] The plate was incubated for 30 minutes before transferring 50 μL to the coated plates. The coated plates were incubated for 1 hour at room temperature. Excess protein was removed by washing with PBS-Tween (0.1% v/v). PD-L1 binding was detected using streptavidin labelled europium (Perkin Elmer) diluted 1/1000 in DELFIA assay buffer (Perkin Elmer). The plates were washed with TBS (Tris buffered saline)-Tween (0.1% v/v) and 50 μL/well of DELFIA Enhancement solution (Perkin Elmer) was added to the plate. Time-resolved fluorescence was measured at 615 nm on an Envision plate reader (PerkinElmer). Percentage specific binding was calculated as defined in Equation 3. IC50 values were determined using GraphPad Prism software by curve fitting using a four-parameter logistic equation (Equation 4). Values for KM121 antibodies are a mean of three independent experiments. Values for KM122 are from a single experiment.

[2] = molecular target: T1, Human PD-L1 His (human PD-L1 ECD with …); test: ELISA, biotin-PD-L1 to plate-bound PD-1, antibody titrated
Description: as §1

[3] = molecular target: T1, Human PD-L1 His (human PD-L1 ECD with …); test: SPR 25C, antibody captured, PD-L1 analyte
Mouse PD-L1 ECD His = molecular target: T2, Mouse PD-L1 ECD His (mouse, UniProt Q9EP73 19-239); test: SPR 25C and 37C
T2 construct: also called mouse PD-L1 (his-tagged)

[4] = molecular target: T3, Human PD-L1 expressed on cells (human, UniProt Q9NZQ7 19-290); test: cell-based or functional assay
[5] = molecular target: T3, Human PD-L1 expressed on cells; test: cell-based or functional assay; remark: listed apart in the source
[6] = molecular target: T3, Human PD-L1 expressed on cells; test: cell-based or functional assay; remark: listed apart in the source
[7] = molecular target: T1, Human PD-L1 His (human PD-L1 ECD with …); test: SPR 25C, antibody captured, PD-L1 analyte; remark: listed apart in the source
Description: (§2) Label-free surface plasmon resonance (SPR) analysis was carried out on the ProteOn XPR36 (BioRad) array SPR machine. An anti-human IgG capture surface was created on a GLC biosensor chip using a combination of anti-human Fc antibodies (Jackson Labs 09-005-008,109-006-008 and 309-006-008) by amine coupling. […] The data was analysed using the 1:1 model inherent to the ProteOn XPR36 analysis software.

[8] = molecular target: T4, Cyno PD-L1 FLAG (cynomolgus PD-L1 ECD with FLAG tag) (cynomolgus monkey); test: SPR 25C, antibody captured, PD-L1 analyte
T4 construct: also called cynomolgus monkey PD-L1-FLAG
Description: as §2

[9] = molecular target: T1, Human PD-L1 His (human PD-L1 ECD with …); test: SPR 37C, antibody captured, PD-L1 analyte
[10] = molecular target: T4, Cyno PD-L1 FLAG (cynomolgus PD-L1 ECD …); test: SPR 37C, antibody captured, PD-L1 analyte
[11] = molecular target: T3, Human PD-L1 expressed on cells; test: flow cytometry on CHO hPD-L1 cells, competitor biotin-CD80-Fc, n = 1
Description: (§3) 150 μL FACS buffer is added and cells washed as described above. […] Cells are incubated at 4° C. for 60 minutes. Cells are washed twice with 150 μL FACS buffer, centrifuging at 300 g for 3 minutes after each wash step and aspirating supernatant. Cells are fixed, washed and resuspended for analysis as above. APC signal intensity (geometric mean) is measured by flow cytometry using a Beckman Coulter CYTOFLEX instrument. Data is plotted as percentage of receptor binding.
(§4) All other steps are performed as per plate 2.

[12] = molecular target: T3, Human PD-L1 expressed on cells; test: flow cytometry on CHO hPD-L1 cells, competitor biotin-CD80-Fc, n = 2
Description: as §3, §4

[13] = molecular target: T3, Human PD-L1 expressed on cells; test: flow cytometry on CHO hPD-L1 cells, competitor biotin-PD-1-Fc, n = 1
Description: as §3

[14] = molecular target: T3, Human PD-L1 expressed on cells; test: flow cytometry on CHO hPD-L1 cells, competitor biotin-PD-1-Fc, n = 2
Description: as §3

T3 sequence (Q9NZQ7 19-290 limits assumed): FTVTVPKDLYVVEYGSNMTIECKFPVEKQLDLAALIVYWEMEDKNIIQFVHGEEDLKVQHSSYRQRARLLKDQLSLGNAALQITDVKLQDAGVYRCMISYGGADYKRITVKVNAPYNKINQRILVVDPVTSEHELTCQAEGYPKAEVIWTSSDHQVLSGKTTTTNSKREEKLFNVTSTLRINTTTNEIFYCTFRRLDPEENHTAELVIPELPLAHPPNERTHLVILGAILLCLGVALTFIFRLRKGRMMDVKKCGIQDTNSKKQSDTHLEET
T1 sequence (Q9NZQ7 19-238 limits assumed): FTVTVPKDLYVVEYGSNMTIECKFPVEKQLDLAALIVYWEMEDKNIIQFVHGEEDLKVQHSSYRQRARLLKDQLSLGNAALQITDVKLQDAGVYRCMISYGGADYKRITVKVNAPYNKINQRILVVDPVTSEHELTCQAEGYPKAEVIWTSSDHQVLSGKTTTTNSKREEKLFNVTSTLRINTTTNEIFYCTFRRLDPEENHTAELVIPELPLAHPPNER
T4 sequence (chain, as listed by the source limits assumed): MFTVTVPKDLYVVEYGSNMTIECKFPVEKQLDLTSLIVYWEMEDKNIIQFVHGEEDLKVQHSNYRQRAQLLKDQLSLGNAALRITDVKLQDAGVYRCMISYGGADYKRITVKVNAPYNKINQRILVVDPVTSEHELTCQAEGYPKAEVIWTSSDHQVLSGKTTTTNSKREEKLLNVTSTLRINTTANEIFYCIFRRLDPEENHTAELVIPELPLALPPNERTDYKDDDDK
T2 sequence (Q9EP73 other isoform, or with tags, fused parts or gaps): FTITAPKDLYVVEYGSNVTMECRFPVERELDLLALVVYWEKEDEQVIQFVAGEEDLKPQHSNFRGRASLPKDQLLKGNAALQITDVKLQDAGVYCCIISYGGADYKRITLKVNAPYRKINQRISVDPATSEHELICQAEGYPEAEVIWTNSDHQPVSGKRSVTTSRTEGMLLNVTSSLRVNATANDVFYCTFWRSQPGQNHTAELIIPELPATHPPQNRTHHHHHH

B1: 389A03 (antibody, human IgG1, kappa, V domains shown)
VH: QLQESGPGLVKPSETLSLTCTVSGGSISSSSYYCGWIRQPPGKGLDWIGSIYSTGYTYYNPSLKSRVTISIDTSKNQFSCLILTSVTAADTAVYYCAISTAAGPEYFHRWGQGTLVTVSS
VL: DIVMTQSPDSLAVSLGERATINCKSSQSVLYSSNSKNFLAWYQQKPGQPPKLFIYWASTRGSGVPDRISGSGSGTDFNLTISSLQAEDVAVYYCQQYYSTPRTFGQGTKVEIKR
IC50 [1]: 13.2 nM

B2: 411B08 (antibody, human IgG1, kappa, V domains shown)
VH: EVQLVESGGGLVQPGGSLRLSCAASGFTFSSYWMSWVRQAPGKGLEWVANIKEDGSEKYYVDSVKGRFTISRDNAKNSLYLQMNSLRAEDTSVYYCARNRLYSDFLDNWGQGTLVTVSS
VL: DIQMTQSPSSVSASVGDRVTITCRASQGVSSWLAWYQQKSGKAPKLLIYGASSLQSGVPSRFSGSGSGTEFILTISSLQPEDFATYYCQQANSIPFTFGPGTKVDIKR
IC50 [1]: 1.6 nM
IC50 [2]: 2.22 nM

B5: 413D08 (antibody, human IgG1, kappa, V domains shown)
VH: QVQLVESGGGVVQPGRSLRLSCAASGFTFRIYGMHWVRQAPGKGLEWVAVIWYDGSNKYYADSVKGRFTISRDNSDNTLYLQMNSLRAEDTAVYYCARDMDYFGMDVWGQGTTVTVSS
VL: DLQMTQSPSSLSASVGDRVTITCRASQGIRNDLGWYQQKPGKAPKRLIYAASSLQSGVPSRFSGSGSGTEFTLTISSLQPEDFATYYCLQHNSYPRTFGQGTKVEIKR
IC50 [1]: 0.67 nM
IC50 [2]: 1.2 nM

B6: 411D07 (antibody, human IgG1, kappa, V domains shown)
VH: QVQLQESGPGLVKPSGTLSLTCIVSGGSIISSDWWNWVRQPPGKGLEWIGEIFHSGRTNYNPSLKSRVTISIDKSKNQFSLRLSSVTAADTAVYYCARDGSGSYWGQGTLVTVSS
VL: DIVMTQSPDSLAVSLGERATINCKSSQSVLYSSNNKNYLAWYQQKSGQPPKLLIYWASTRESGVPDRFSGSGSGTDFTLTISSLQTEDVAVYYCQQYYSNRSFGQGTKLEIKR
IC50 [1]: 9.06 nM

B8: 1D05 V to A & F to S change in VH (Seq ID No: 342), IgG1 disabled (LAGA), with 1D05 kappa (antibody, V domains shown)
VH: EVQLVESGGGLVQPGRSLRLSCAASGFTFDDYAMHWVRQAPGKGLEWVSGISWIRTGIGYADSVKGRFTISRDNAKNSLYLQMNSLRAEDTALYYCAKDMKGSGTYGGWFDTWGQGTLVTVSS
VL: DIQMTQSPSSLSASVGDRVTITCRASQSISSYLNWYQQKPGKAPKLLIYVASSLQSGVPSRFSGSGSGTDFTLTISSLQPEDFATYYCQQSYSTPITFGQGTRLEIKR
notes: Entry 342 is a whole heavy chain; also called 1D05 HC mutant 4
Kd [3]: 0.23 nM

B10: 1D05 F to S change in VH (Seq ID No: 48), IgG1 disabled (LAGA), with 1D05 kappa V to A change (Seq ID No: 50) (antibody, V domains shown)
VH: B8 VH with A40V
VL: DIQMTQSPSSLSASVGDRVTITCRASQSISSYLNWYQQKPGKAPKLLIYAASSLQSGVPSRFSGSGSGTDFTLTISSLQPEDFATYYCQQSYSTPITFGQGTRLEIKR
notes: See note of m59
Kd [3]: 1.94 nM

B11: 1D05 V to A change in VH (Seq ID No: 47), IgG1 disabled (LAGA), with 1D05 kappa (antibody, V domains shown)
VH: B8 VH with S71F
VL: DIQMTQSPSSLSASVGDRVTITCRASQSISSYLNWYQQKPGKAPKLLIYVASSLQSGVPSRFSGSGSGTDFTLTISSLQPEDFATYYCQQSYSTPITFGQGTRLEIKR
notes: Listing entry 47 is a whole heavy chain said to carry the IgG1 disabled (LAGA) constant region; also called 1D05 HC mutant 1
Kd [3]: 0.33 nM

B14: 1D05 - IgG1 disabled (LAGA) with 1D05 kappa, V to A change (Seq ID No: 50) (antibody, V domains shown)
VH: B8 VH with A40V, S71F
VL: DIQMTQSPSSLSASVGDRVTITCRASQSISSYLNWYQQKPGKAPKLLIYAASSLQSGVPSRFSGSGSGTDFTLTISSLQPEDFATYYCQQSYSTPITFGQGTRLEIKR
notes: also called 1D05 LC mutant 1
Kd [3]: 2.66 nM

B16: 413G05 (antibody, human IgG1, kappa, V domains shown)
VH: QVQLVESGGGLVKPGGSLRLSCAASGFTFSDYYMSWIRQVPGKGLEWVSYISTSGSTIYYADSVKGRFTISRDNAKNSLYLQMNSLRAEDAAVYHCARGITGTNFYHYGLGVWGQGTTVTVSS
VL: DIQMTQSPSSVSASVGDRVTITCRASQGINSWLAWYQQKPGKAPKLLIYAASTLQSGVPSRFSGSGSGADFTLTISSLQPEDFATYYCQQVNSFPLTFGGGTKVEIKR
binding result (Mouse PD-L1 ECD His): no binding
mean EC50, IFNγ induction, monocyte-T cell co-culture [4]: 0.082 nM
mean fold increase IFNγ, monocyte-T cell co-culture [4]: 2.85 fold
EC50, IL-2 induction, murine T cell hybridoma assay, n = 1 [5]: 0.29 nM
EC50, IL-2 induction, murine T cell hybridoma assay, n = 2 [5]: 0.11 nM
EC50, IL-2 induction, murine T cell hybridoma assay, n = 3 [5]: 0.29 nM
EC50, ADCC reporter assay, n = 1 [6]: 0.0219 nM
EC50, ADCC reporter assay, n = 2 [6]: 0.0209 nM
EC50, ADCC reporter assay, n = 3 [6]: 0.0275 nM
max fold induction, ADCC reporter assay, n = 1 [6]: 13.2 fold
max fold induction, ADCC reporter assay, n = 2 [6]: 16.4 fold
max fold induction, ADCC reporter assay, n = 3 [6]: 23.4 fold
Kd [7]: 0.024 nM
Kd [8]: 0.015 nM
Kd [9]: 0.05 nM
Kd [10]: 0.046 nM
IC50 [1]: 1.1 nM
IC50 [2]: 2.02 nM
IC50 [11]: 1.09 nM
IC50 [12]: 1.17 nM
IC50 [13]: 1.07 nM
IC50 [14]: 1.17 nM

More lines, now with the values ahead:

IC50 [1]: 1.76 nM
IC50 [2]: 2.25 nM
B3: 385F01 (antibody, human IgG1, kappa, V domains shown)
VH: B2 VH
VL: B2 VL

IC50 [1]: 1.93 nM
IC50 [2]: 2.45 nM
B4: 411C04 (antibody, human IgG1, kappa, V domains shown)
VH: B2 VH with E6D, V64L, N99V, N108Y
VL: B2 VL with T74S

IC50 [1]: 0.74 nM
B7: 386H03 (antibody, human IgG1, kappa, V domains shown)
VH: B6 VH with I23A, I30S, N36S, R57N, I72V, F79I, S84N, A97V
VL: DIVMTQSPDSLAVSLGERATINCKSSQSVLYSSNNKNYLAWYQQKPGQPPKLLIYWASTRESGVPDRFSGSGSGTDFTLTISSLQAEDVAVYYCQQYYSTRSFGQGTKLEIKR

Kd [3]: 2.8 nM
B9: 1D05 V to A change in VH (Seq ID No: 47), IgG1 disabled (LAGA), with 1D05 kappa V to A change (Seq ID No: 50) (antibody, V domains shown)
VH: B8 VH with S71F
VL: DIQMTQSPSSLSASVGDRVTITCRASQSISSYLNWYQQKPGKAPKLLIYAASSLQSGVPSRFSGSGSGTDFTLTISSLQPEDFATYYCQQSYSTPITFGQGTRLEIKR
notes: See note of m58

Kd [3]: 0.23 nM
B12: 1D05 F to S change in VH (Seq ID No: 48), IgG1 disabled (LAGA), with 1D05 kappa (antibody, V domains shown)
VH: B8 VH with A40V
VL: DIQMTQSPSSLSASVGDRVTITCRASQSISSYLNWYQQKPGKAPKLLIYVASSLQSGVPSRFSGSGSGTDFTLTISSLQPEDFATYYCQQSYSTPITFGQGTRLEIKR
notes: Entry 48 is a whole heavy chain; also called 1D05 HC mutant 2

Kd [3]: 1.94 nM
B13: 1D05 V to A & F to S change in VH (Seq ID No: 342), IgG1 disabled (LAGA), with 1D05 kappa V to A change (Seq ID No: 50) (antibody, V domains shown)
VH: B8 VH
VL: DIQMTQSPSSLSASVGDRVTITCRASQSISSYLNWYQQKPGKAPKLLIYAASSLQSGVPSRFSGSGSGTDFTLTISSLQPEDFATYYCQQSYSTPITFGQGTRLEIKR
notes: See note of m60

binding result (Mouse PD-L1 ECD His): no binding
mean EC50, IFNγ induction, monocyte-T cell co-culture [4]: 0.064 nM
mean fold increase IFNγ, monocyte-T cell co-culture [4]: 2.23 fold
EC50, IL-2 induction, murine T cell hybridoma assay, n = 1 [5]: 0.19 nM
EC50, IL-2 induction, murine T cell hybridoma assay, n = 2 [5]: 0.15 nM
EC50, IL-2 induction, murine T cell hybridoma assay, n = 3 [5]: 0.14 nM
EC50, ADCC reporter assay, n = 1 [6]: 0.08 nM
EC50, ADCC reporter assay, n = 2 [6]: 0.0106 nM
EC50, ADCC reporter assay, n = 3 [6]: 0.0229 nM
max fold induction, ADCC reporter assay, n = 1 [6]: 32.1 fold
max fold induction, ADCC reporter assay, n = 2 [6]: 33.8 fold
max fold induction, ADCC reporter assay, n = 3 [6]: 60.2 fold
Kd [7]: 0.193 nM
Kd [8]: 0.411 nM
Kd [9]: 0.511 nM
Kd [10]: 0.998 nM
IC50 [1]: 0.98 nM
IC50 [2]: 1.72 nM
IC50 [11]: 1.04 nM
IC50 [12]: 0.89 nM
IC50 [13]: 0.81 nM
IC50 [14]: 0.89 nM
B15: 416E01 (human IgG1) (antibody, V domains shown)
VH: EVQLAESGGGLVQPGGSLRLSCAASGFTFSNYAMSWVRQTPGKGLEWVSAISFSGGTTYYADSVKGRFTISRDNSKNTLYLHMNSLRADDTAVYYCAKDEAPAGATFFDSWGQGTLVTVSS
VL: DIQMTQSPSSVSASVGDRVTITCRASQGIRRWLAWYQQKPGKAPKLLISGASSLQSGVPSRFSGSGSGTDFTLIITSLQPEDFATYYCQQANSFPITFGQGTRLEIKR
